The test deals with human IGF-IR expressed on recombinant NIH-3T3 cells (human) (UniProt P08069). In words: cell-based or functional assay.
UniProt P08069, sequence (P08069 31-1367): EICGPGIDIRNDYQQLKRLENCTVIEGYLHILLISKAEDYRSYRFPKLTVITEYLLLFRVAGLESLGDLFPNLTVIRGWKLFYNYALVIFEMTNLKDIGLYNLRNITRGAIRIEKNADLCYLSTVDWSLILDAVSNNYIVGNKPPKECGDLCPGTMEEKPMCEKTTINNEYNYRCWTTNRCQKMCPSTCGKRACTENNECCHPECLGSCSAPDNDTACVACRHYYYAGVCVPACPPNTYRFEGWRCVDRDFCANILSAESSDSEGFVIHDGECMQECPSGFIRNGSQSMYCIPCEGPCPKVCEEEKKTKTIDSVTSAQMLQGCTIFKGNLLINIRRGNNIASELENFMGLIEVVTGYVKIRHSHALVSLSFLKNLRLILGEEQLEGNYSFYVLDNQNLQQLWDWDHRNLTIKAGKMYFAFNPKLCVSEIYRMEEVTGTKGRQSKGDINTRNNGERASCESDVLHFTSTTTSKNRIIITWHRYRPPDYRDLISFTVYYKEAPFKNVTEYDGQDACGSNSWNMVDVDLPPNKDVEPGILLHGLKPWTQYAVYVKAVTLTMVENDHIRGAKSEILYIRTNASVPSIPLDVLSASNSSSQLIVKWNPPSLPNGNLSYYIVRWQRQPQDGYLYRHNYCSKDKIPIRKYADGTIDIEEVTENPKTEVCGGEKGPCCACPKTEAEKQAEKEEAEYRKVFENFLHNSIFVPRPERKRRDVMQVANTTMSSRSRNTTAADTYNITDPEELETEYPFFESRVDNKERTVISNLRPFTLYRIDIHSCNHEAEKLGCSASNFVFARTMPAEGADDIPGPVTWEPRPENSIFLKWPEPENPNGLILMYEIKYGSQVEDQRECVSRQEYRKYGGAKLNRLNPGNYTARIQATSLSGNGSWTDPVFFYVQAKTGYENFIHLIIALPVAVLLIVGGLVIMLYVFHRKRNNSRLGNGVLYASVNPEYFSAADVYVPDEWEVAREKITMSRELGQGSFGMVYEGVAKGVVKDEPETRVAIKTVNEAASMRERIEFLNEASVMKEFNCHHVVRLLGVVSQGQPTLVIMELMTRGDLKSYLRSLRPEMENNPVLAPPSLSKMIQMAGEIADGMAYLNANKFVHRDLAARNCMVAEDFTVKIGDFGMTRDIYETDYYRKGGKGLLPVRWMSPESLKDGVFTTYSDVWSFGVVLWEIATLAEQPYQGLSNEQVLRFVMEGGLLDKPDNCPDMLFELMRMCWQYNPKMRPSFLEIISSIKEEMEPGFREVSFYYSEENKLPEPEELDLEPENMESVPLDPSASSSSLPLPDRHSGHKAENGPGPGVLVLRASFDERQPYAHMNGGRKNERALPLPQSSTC
“rhIGF-I (K27R, K65R) (from UniProt P05019 49-118) (ligand)”: the Activation of IGF-1R (phospho-IGF-IR ELISA), EC50 [nM] turned out to be 1.2 nM. Then “wt-rhIGF-I - YRHAK MCa PEG20000 (from UniProt P05019 49-118) (ligand)”, with 18.4 nM. The result for “wt-rhIGF - trypsin site - Strep-Tag (ligand)” reads 1.7 nM.

These data come from patent US20170267736A1.
